Tests used:
Settings in all cases: remark: other sources report otherwise
[1] = target: recombinant SARS-CoV-2 Receptor Binding Domain (RBD) with a his tag (ATUM, Cat. 65639.1.a) (SARS-CoV-2), P0DTC2; experiment: ELISA on coated RBD-his
[2] = target: T1, recombinant Spike protein (Sino Biologicals Cat #40589-V08B1) (SARS-CoV-2), P0DTC2; experiment: ELISA on coated recombinant spike
[3] = target: T1, recombinant Spike protein (Sino …); experiment: BLI (Octet), His-tagged S on Ni-NTA sensor, avidity
[4] = target: T2, wild type RBD protein (generated as in Ku et al. 2021) (SARS-CoV-2), P0DTC2; experiment: binding KD on RBD protein, generally as Example 4
[5] = target: T2, wild type RBD protein (generated as in …); experiment: BLI competition, RBD on sensor, antibody then ACE2; competitor ACE2

B1: anti-SARS-CoV2-14 IgG (lambda-VL-kappa-CL hybrid light chain) (antibody, V domains shown)
VH: EVQLQQSGPGLVKPSQTLSLTCAISGDSVSSNSAAWNWIRQSPSRGLEWLGRTYYRSKWYNDYAVSVKSRITINPDTSKNQFSLQLNSVTPEDTAVYYCAREEQQLVHDYYYYGMDVWGQGTMVTVSS
VL: QAVVTQPASVSGSPGQSITISCTGTSSDIGAYNYISWYQQHPGKAPKLIIYEVSNRPSGISYRFSGSKSGNTASLTISGLQAEDEANYYCSSYAGSISFGGGTKVTVL
EC50 [1]: > 60 nM | EC50 [2]: 6.22 nM | Kd [3]: 1.39 nM | koff [3]: 0.0013 s⁻¹ | kon [3]: 933000 M⁻¹ s⁻¹

B2: anti-SARS-CoV2-14 IgG (full lambda light chain) (antibody, V domains shown)
VH: EVQLQQSGPGLVKPSQTLSLTCAISGDSVSSNSAAWNWIRQSPSRGLEWLGRTYYRSKWYNDYAVSVKSRITINPDTSKNQFSLQLNSVTPEDTAVYYCAREEQQLVHDYYYYGMDVWGQGTMVTVSS
VL: QAVVTQPASVSGSPGQSITISCTGTSSDIGAYNYISWYQQHPGKAPKLIIYEVSNRPSGISYRFSGSKSGNTASLTISGLQAEDEANYYCSSYAGSISFGGGTKVTVL
Kd [4]: 0.82 nM | EC50 [5]: 18.6 nM
